Values belong to the substance of their own block, whether it stands above or below them.
How the values were obtained:
[1] = molecular target: recombinant soluble integrin αvβ3 (UniProt P06756); test: SPR; soluble αvβ3 immobilized on a CM5 sensor chip by amine coupling; WT and mutant FGF2 two-fold serially diluted from 2 μM in HBS-P buffer (0.01 M Hepes, pH 7.4, 0.15 M NaCl, 0.0005% surfactant P20) with 1 mM Mn2+; 50 μl/min, 1.8 min injection, 3 min dissociation; WT: Kd is the average of Kd values of individual curves; K125E: global fit with a conformation-change model, Kd1 used as Kd
Chain of UniProt P06756 (P06756 31-1048, chain 1 of 2): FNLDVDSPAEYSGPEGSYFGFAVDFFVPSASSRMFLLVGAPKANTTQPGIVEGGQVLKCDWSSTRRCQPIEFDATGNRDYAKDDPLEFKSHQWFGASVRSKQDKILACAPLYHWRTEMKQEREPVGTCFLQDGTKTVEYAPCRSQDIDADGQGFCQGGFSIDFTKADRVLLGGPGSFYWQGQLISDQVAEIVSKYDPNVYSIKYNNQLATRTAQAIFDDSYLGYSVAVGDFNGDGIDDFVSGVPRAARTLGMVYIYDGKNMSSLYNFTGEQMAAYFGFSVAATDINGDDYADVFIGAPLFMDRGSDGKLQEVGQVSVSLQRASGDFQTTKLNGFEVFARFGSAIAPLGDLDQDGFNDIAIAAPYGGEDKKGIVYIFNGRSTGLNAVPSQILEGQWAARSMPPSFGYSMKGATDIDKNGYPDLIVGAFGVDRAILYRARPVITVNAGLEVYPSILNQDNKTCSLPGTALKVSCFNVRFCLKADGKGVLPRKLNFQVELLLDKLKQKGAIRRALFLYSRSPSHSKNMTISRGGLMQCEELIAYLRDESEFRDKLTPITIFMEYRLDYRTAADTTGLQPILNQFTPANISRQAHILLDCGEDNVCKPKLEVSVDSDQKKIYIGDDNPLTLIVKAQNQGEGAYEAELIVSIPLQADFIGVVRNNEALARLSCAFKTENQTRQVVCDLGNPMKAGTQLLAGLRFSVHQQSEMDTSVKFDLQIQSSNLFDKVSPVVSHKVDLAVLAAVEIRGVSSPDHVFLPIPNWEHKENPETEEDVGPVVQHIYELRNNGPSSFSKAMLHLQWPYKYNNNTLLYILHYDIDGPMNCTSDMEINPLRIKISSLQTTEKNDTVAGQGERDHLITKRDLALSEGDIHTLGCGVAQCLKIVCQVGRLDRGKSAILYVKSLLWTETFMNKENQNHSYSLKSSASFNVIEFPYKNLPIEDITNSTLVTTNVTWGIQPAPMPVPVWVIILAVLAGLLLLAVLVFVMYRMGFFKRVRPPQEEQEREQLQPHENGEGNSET
Chain of UniProt P06756 (P05106 27-718, chain 2 of 2, further chain): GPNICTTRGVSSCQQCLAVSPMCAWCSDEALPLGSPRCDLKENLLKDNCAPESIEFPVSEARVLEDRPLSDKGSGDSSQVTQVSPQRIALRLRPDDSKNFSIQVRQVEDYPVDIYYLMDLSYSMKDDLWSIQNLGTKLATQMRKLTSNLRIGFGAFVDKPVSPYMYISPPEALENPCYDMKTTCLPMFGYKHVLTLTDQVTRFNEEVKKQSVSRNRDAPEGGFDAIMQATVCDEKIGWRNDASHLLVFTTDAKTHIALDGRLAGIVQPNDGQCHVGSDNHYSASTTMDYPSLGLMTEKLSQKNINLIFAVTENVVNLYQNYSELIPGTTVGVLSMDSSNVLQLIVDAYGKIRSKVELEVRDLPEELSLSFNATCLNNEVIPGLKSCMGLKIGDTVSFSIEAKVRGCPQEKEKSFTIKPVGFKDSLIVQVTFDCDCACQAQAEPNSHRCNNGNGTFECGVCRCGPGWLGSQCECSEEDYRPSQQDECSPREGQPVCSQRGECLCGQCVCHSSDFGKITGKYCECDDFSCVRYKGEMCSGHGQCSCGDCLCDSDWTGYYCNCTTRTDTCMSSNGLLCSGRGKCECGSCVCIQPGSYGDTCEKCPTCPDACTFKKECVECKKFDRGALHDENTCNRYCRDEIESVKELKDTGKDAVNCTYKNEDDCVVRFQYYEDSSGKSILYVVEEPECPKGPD

[2] = molecular target: integrin α5β1 on K562 erythroleukaemia cells, P08648;P05556; test: cell adhesion assay (K562 cells); details: K562 cells (αvβ3-, α5β1+), panel title K562_FGF2_RPMI, read off a plot

Chain of wild-type human FGF2 (fibroblast growth factor 2) (P09038 143-288): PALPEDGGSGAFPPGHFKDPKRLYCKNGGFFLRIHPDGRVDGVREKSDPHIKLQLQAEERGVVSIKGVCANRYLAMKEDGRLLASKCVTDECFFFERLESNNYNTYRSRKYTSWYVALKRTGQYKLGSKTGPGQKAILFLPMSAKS

Kd1 (A + B <=> AB, first step of the conformation-change model; used by the paper as the binding Kd) [1]: 1100 nM
Substance: FGF2 K125E mutant (ligand)

Kd [1]: 77.5 nM
Substance: wild-type human FGF2 (fibroblast growth factor 2) (ligand)

response ([2]; FGF2 2.5 µg/ml, parent: est. 63): 27 % adhesion
response ([2]; FGF2 5 µg/ml, parent: est. 84): 68 % adhesion
response ([2]; FGF2 20 µg/ml, parent: est. 85): 89 % adhesion
Substance: wild-type human FGF2 (fibroblast growth factor 2) K39E

Source: publication PMC5482197
